Laboratory results published in article PMC10052518.

Columns and labels:
[1] = molecular target: hFcRn (human neonatal Fc receptor) (human) (UniProt P55899); experiment: SPR; Bia3000; hFcRn immobilised on CM5 chip (<200 RU); increasing concentrations of antibody injected over 180 s, dissociation 400 s; 25 °C; 50 mM phosphate, 150 mM NaCl, 0.05% P20, pH 7; multi-cycle kinetics, bivalent model fit
[2] = molecular target: hFcRn (human neonatal Fc receptor) (human) (UniProt P55899); experiment: SPR; bivalent fit, kd1
[3] = molecular target: hFcRn (human neonatal Fc receptor) (human) (UniProt P55899); experiment: SPR; bivalent fit, kd2 (second site)
[4] = molecular target: hFcRn (human neonatal Fc receptor) (human) (UniProt P55899); experiment: SPR; Bia3000; hFcRn immobilised on CM5 chip (<200 RU); increasing concentrations of antibody injected over 180 s, dissociation 400 s; 25 °C; 50 mM phosphate, 150 mM NaCl, 0.05% P20, pH 6; multi-cycle kinetics, bivalent model fit
[5] = molecular target: hFcRn (human neonatal Fc receptor) (human) (UniProt P55899); experiment: SPR; pH 7.0, bivalent fit, kd1

UniProt P55899, sequence (P55899 24-297, chain 1 of 2): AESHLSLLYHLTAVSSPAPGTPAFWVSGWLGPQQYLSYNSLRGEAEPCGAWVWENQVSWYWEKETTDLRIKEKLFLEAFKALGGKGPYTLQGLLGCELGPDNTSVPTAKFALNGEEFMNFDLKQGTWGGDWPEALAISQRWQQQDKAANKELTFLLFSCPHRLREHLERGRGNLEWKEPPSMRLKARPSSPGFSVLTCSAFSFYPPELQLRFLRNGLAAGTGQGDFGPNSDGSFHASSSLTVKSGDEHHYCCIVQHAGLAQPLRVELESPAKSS
UniProt P55899, sequence (P61769 21-119, chain 2 of 2, further chain): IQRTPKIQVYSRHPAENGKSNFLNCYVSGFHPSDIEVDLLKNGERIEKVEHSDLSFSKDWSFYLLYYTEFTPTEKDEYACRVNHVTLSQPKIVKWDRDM

Substance | Kd [1] [µM] | koff [2] [s⁻¹] | koff [3] [s⁻¹] | Kd [4] [µM] | further results
A3 (tocilizumab variant M252W/M428K/N434W) (antibody) | 0.57 | – | – | – | –
B5 (tocilizumab variant T256Y/H285Q/N286D/V308A/N434Y) | – | 0.0439 | 0.000765 | – | –
B5 (tocilizumab variant T256Y/H285Q/N286D/V308A/N434Y) (antibody) | 0.62 | – | – | 0.045 | –
C7 (tocilizumab variant T256E/N286H/K288E/V308P/L309D/N434Y/Y436K) | – | 0.0053 | 6.52e-05 | – | –
C7 (tocilizumab variant T256E/N286H/K288E/V308P/L309D/N434Y/Y436K) (antibody) | 0.16 | – | – | 0.034 | –
T3 (tocilizumab variant M252Y/T307D/N434Y) | – | – | – | – | koff [5]: 0.0263 s⁻¹
T3 (tocilizumab variant M252Y/T307D/N434Y) (antibody) | 0.38 | – | – | 0.013 | –
T8 (tocilizumab variant M252Y/N286E/T307Q/V308P/Q311A/N434Y/Y436V) | – | 0.000658 | 0.0383 | – | –
T8 (tocilizumab variant M252Y/N286E/T307Q/V308P/Q311A/N434Y/Y436V) (antibody) | 0.0078 | – | – | 0.0013 | –
Tocilizumab (antibody) | – | – | – | 0.38 | –
